Patent US20110136237

Tests used:
[1] = system: Cre recombinase (bacteriophage P1); experiment: cell_activity; conditions: positive control, S. pombe, day 7
[2] = molecular target: T1, phiC31 integrase (Streptomyces bacteriophage phiC31) (UniProt Q9T221); experiment: cell_activity; conditions: attP x attB, S. pombe, day 7
T1 sequence: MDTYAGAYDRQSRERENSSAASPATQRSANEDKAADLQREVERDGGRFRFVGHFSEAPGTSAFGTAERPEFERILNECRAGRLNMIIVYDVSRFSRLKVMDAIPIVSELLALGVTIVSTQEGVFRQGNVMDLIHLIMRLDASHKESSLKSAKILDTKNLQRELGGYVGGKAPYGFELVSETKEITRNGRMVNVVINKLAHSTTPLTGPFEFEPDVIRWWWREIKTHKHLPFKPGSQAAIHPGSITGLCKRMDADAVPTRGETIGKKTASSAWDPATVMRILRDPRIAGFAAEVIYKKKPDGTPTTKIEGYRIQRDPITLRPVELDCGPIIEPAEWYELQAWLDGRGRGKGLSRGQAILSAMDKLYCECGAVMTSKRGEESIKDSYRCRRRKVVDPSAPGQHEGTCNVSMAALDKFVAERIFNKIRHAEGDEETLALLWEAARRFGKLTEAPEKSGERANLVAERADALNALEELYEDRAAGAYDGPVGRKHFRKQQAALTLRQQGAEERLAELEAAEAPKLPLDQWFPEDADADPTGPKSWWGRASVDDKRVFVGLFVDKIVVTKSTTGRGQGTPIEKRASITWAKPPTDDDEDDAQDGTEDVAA

Substance	activity [1]	activity [2]
lox	100 % excision	–
phiC31 attP x attB	–	80 % excision
